Measured values taken from patent US20160159865A1 (CHILDREN S HOSPITAL AND RESEARCH CENTER AT OAKLAND, published 2016).

Target: T1, human factor H (human, UniProt P08603 19-1231)
T1 construct: Purified human factor H was used in the ELISA; also called fH; human fH
Experiment: ELISA, fHbp (2 µg/ml) on plate, human factor H titrated

T1 sequence (P08603 19-1231 Y402H/T493R limits assumed): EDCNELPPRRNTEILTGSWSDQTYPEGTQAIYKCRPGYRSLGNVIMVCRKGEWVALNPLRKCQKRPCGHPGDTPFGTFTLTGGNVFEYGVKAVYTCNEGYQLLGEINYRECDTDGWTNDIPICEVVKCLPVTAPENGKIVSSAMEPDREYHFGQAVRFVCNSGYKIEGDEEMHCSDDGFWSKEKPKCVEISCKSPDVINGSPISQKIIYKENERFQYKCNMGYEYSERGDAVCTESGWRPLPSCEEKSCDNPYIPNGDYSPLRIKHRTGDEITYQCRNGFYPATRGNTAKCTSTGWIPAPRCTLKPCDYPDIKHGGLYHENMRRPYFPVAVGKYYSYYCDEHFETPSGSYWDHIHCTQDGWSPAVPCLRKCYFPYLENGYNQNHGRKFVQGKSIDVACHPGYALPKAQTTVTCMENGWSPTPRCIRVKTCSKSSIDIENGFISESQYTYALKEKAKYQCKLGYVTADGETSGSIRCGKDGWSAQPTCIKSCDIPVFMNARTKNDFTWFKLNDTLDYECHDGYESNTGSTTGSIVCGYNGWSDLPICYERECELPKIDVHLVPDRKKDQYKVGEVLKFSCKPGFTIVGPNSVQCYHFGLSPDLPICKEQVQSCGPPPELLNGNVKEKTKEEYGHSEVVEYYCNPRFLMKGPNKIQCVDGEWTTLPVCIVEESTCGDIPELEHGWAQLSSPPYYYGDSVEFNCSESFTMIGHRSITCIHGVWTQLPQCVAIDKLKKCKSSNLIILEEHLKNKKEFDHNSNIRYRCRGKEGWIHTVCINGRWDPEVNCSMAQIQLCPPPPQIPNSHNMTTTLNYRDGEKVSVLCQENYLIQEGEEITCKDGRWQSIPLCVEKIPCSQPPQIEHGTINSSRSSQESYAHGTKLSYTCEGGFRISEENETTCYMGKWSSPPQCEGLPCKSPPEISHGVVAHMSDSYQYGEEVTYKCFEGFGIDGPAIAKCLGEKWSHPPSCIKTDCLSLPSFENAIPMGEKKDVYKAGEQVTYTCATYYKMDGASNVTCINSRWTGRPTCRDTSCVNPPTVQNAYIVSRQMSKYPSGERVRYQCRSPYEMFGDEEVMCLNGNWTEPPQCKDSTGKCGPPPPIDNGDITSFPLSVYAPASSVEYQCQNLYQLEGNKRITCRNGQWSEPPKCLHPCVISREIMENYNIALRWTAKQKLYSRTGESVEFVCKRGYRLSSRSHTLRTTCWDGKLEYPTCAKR

B1: fHbp ID 79 H223R mutant (other)
chain: CSSGGGGSGSGGVAADIGTGLADALTTPLDHKDKGLKSLTLEDSIPQNGTLTLSAQGAEKTFKAGDKDNSLNTGKLKNDKISRFDFVQKIEVDGQTITLASGEFQIYKQDHSAVVALQIEKINNPDKIDSLINQRSFLVSGLGGEHTAFNQLPGGKAEYHGKAFSSDDAGGKLTYTIDFAAKQGHGKIEHLKTPEQNVELASAELKADEKSHAVILGDTRYGSEEKGTYRLALFGDRAQEIAGSATVKIGEKVHEIGIAGKQ
notes: Purified recombinant mutant
B1: no binding (tested: human factor H 0.0012 to 20 µg/ml).
